Target: Rac1 (Homo sapiens, UniProt P63000)
Test: microscale thermophoresis

B1: p67phox 1-212 (protein)
chain: MSLVEAISLWNEGVLAADKKDWKGALDAFSAVQDPHSRICFNIGCMYTILKNMTEAEKAFTRSINRDKHLAVAYFQRGMLYYQTEKYDLAIKDLKEALIQLRGNQLIDYKILGLQFKLFACEVLYNIAFMYAKKEEWKKAEEQLALATSMKSEPRHSKIDKAMECVWKQKLYEPVVIPVGKLFRPNERQVAQLAKKDYLGKATVVASVVDQD
  Kd: ~40 nM
